This is an account of results in IntAct's records for PubMed 20595257.

The labels stand for the following.
B1: Aerobic respiration control sensor protein ArcB (Escherichia coli (strain K12)), P0AEC3 (parent)
chain: MKQIRLLAQYYVDLMMKLGLVRFSMLLALALVVLAIVVQMAVTMVLHGQVESIDVIRSIFFGLLITPWAVYFLSVVVEQLEESRQRLSRLVQKLEEMRERDLSLNVQLKDNIAQLNQEIAVREKAEAELQETFGQLKIEIKEREETQIQLEQQSSFLRSFLDASPDLVFYRNEDKEFSGCNRAMELLTGKSEKQLVHLKPADVYSPEAAAKVIETDEKVFRHNVSLTYEQWLDYPDGRKACFEIRKVPYYDRVGKRHGLMGFGRDITERKRYQDALERASRDKTTFISTISHELRTPLNGIVGLSRILLDTELTAEQEKYLKTIHVSAVTLGNIFNDIIDMDKMERRKVQLDNQPVDFTSFLADLENLSALQAQQKGLRFNLEPTLPLPHQVITDGTRLRQILWNLISNAVKFTQQGQVTVRVRYDEGDMLHFEVEDSGIGIPQDELDKIFAMYYQVKDSHGGKPATGTGIGLAVSRRLAKNMGGDITVTSEQGKGSTFTLTIHAPSVAEEVDDAFDEDDMPLPALNVLLVEDIELNVIVARSVLEKLGNSVDVAMTGKAALEMFKPGEYDLVLLDIQLPDMTGLDISRELTKRYPREDLPPLVALTANVLKDKQEYLNAGMDDVLSKPLSVPALTAMIKKFWDTQDDEESTVTTEENSKSEALLDIPMLEQYLELVGPKLITDGLAVFEKMMPGYVSVLESNLTAQDKKGIVEEGHKIKGAAGSVGLRHLQQLGQQIQSPDLPAWEDNVGEWIEEMKEEWRHDVEVLKAWVAKATKK
partner: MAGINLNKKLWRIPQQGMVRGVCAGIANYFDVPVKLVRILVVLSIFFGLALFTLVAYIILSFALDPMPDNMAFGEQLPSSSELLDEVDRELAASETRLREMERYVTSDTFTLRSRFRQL
B2: Aerobic respiration control sensor protein ArcB (Escherichia coli (strain K12)), P0AEC3 (parent)
chain: B1 chain
B3: Phage shock protein C (Escherichia coli (strain K12)), P0AFN2 (parent)
chain: B1 partner
partner: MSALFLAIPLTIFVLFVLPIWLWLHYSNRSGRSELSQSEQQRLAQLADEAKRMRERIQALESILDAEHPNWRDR
B4: Phage shock protein C (Escherichia coli (strain K12)), P0AFN2 (parent)
chain: B1 partner
B5: Phage shock protein B (Escherichia coli (strain K12)), P0AFM9 (parent)
chain: B3 partner
partner: B1 partner
B6: Aerobic respiration control sensor protein ArcB (Escherichia coli (strain K12)), P0AEC3 (parent)
chain: B1 chain
partner: B3 partner

Variants of B1 are the subject of one test. The conditions noted are these: with pspc_ecoli pspC.
With L87A;L90A;L94A;M97A, the “effect of a mutation on the interaction” value is on record as “with no effect”.

A further test covers variants of B2. The conditions noted are these: with pspa_ecoli pspA.
L87A;L90A;L94A;M97A: the “effect of a mutation on the interaction” value was “with no effect”.

Variants of B3 are the subject of the next test. The conditions noted are these: with pspb_ecoli pspB.
G48A: the “effect of a mutation on the interaction” value was “with no effect”. As for G74A, the “effect of a mutation on the interaction” value is “with no effect”.

In a further test the parent is B4. The note with it: with pspa_ecoli pspA.
As to G48A, the “effect of a mutation on the interaction” value is “disrupting interaction strength”. For G74A, the “effect of a mutation on the interaction” value is “with no effect”. With L91A;L98A, the “effect of a mutation on the interaction” value is on record as “disrupting interaction strength”.

In the next test the parent is B5. The conditions noted are these: with pspc_ecoli pspC.
For the variant L10A;L15A;L18A, the “effect of a mutation on the interaction” value is “with no effect”.

Variants of B6 are the subject of a further test. The note with it: with pspb_ecoli pspB.
Turning to L87A;L90A;L94A;M97A, the “effect of a mutation on the interaction” value is reported as “with no effect”.
